# In IntAct's records for PubMed 9343432:
# B1: Polycomb protein Scm (Drosophila melanogaster (Fruit fly)), Q9VHA0 (parent)
# chain: MSGGRDSSTSSGSNSAAPGASTNATSSASASASSTSTSASPGSTTSPASTQRQRGRPAKRATCTWCGEGKLPLQYVLPTQTGKKEFCSETCIAEFRKAYSKGACTQCDNVIRDGAPNKEFCSIMCMNKHQKKNCSTRHSGGSASGKGLAESERKLLASGAPAPTGPFQYESFHVFDWDAYLEETGSEAAPAKCFKQAQNPPNNDFKIGMKLEALDPRNVTSTCIATVVGVLGSRLRLRLDGSDSQNDFWRLVDSTEIHAIGHCEKNGGMLQPPLGFRMNASSWPGYLCKILNNAMVAPEEIFQPEPPEPEENLFKVGQKLEAVDKKNPQLICCATVDAIKDDQIHVTFDGWRGAFDYWCNYRSRDIFPAGWCARSCHPMQPPGHKSRMDSSSSKQRCPRPRYTVVAESEAMVPASPATAHFHPNCKGGPFINNSKLPCMVTGPTYQTLAKLCLQEVLAASTDTQQLSKLLFALEGDVHIVTAAGKNFTVKIPSPMRMKDDESLAQFIETLCTTCRACANLISLVHETEECKKCANSRKRQLTQSATPPSSPVLADKRNRQSNSATTSPSEKIIKQELAVKSPVESKSKTSTNNGKEPASQQNSNHSLNNNNNSASKSSNKVVIKSEPNGANAQTSSTTQALRKVRFQHHANTNTNSSATNGNQDTSQTTHVSTSHCSSSSTSSSTSLAGGSANTSTIGKYLAPLVAEVHPEQANVKPSNSYYKSPTTLSSSASLPTSVSTPFTGCQSASSTALAAGGVTAAKAATAPAGAAATAGASPSYTAITSPVSTPTSALANSHLRSQPIDWTIEEVIQYIESNDNSLAVHGDLFRKHEIDGKALLLLNSEMMMKYMGLKLGPALKICNLVNKVNGRRNNLAL
# B2: Polyhomeotic-proximal chromatin protein (Drosophila melanogaster (Fruit fly)), P39769 (parent)
# chain: MDRRALKFMQKRADTESDTTTPVSTTASQGISASAILAGGTLPLKDNSNIREKPLHHNYNHNNNNSSQHSHSHQQQQQQQVGGKQLERPLKCLETLAQKAGITFDEKYDVASPPHPGIAQQQATSGTGPATGSGSVTPTSHRHGTPPTGRRQTHTPSTPNRPSAPSTPNTNCNSIARHTSLTLEKAQNPGQQVAATTTVPLQISPEQLQQFYASNPYAIQVKQEFPTHTTSGSGTELKHATNIMEVQQQLQLQQQLSEANGGGAASAGAGGAASPANSQQSQQQQHSTAISTMSPMQLAAATGGVGGDWTQGRTVQLMQPSTSFLYPQMIVSGNLLHPGGLGQQPIQVITAGKPFQGNGPQMLTTTTQNAKQMIGGQAGFAGGNYATCIPTNHNQSPQTVLFSPMNVISPQQQQNLLQSMAAAAQQQQLTQQQQQFNQQQQQQLTQQQQQLTAALAKVGVDAQGKLAQKVVQKVTTTSSAVQAATGPGSTGSTQTQQVQQVQQQQQQTTQTTQQCVQVSQSTLPVGVGGQSVQTAQLLNAGQAQQMQIPWFLQNAAGLQPFGPNQIILRNQPDGTQGMFIQQQPATQTLQTQQNQIIQCNVTQTPTKARTQLDALAPKQQQQQQQVGTTNQTQQQQLAVATAQLQQQQQQLTAAALQRPGAPVMPHNGTQVRPASSVSTQTAQNQSLLKAKMRNKQQPVRPALATLKTEIGQVAGQNKVVGHLTTVQQQQQATNLQQVVNAAGNKMVVMSTTGTPITLQNGQTLHAATAAGVDKQQQQLQLFQKQQILQQQQMLQQQIAAIQMQQQQAAVQAQQQQQQQVSQQQQVNAQQQQAVAQQQQAVAQAQQQQREQQQQVAQAQAQHQQALANATQQILQVAPNQFITSHQQQQQQQLHNQLIQQQLQQQAQAQVQAQVQAQAQQQQQQREQQQNIIQQIVVQQSGATSQQTSQQQQHHQSGQLQLSSVPFSVSSSTTPAGIATSSALQAALSASGAIFQTAKPGTCSSSSPTSSVVTITNQSSTPLVTSSTVASIQQAQTQSAQVHQHQQLISATIAGGTQQQPQGPPSLTPTTNPILAMTSMMNATVGHLSTAPPVTVSVTSTAVTSSPGQLVLLSTASSGGGGSIPATPTKETPSKGPTATLVPIGSPKTPVSGKDTCTTPKSSTPATVSASVEASSSTGEALSNGDASDRSSTPSKGATTPTSKQSNAAVQPPSSTTPNSVSGKEEPKLATCGSLTSATSTSTTTTITNGIGVARTTASTAVSTASTTTTSSGTFITSCTSTTTTTTSSISNGSKDLPKAMIKPNVLTHVIDGFIIQEANEPFPVTRQRYADKDVSDEPPKKKATMQEDIKLSGIASAPGSDMVACEQCGKMEHKAKLKRKRYCSPGCSRQAKNGIGGVGSGETNGLGTGGIVGVDAMALVDRLDEAMAEEKMQTEATPKLSESFPILGASTEVPPMSLPVQAAISAPSPLAMPLGSPLSVALPTLAPLSVVTSGAAPKSSEVNGTDRPPISSWSVDDVSNFIRELPGCQDYVDDFIQQEIDGQALLLLKEKHLVNAMGMKLGPALKIVAKVESIKEVPPPGEAKDPGAQ
# Variants of: B1
# Details: with php_drome ph-p, P39769
row,effect of a mutation on the interaction,Variant
1,decreasing interaction,G836S

# Variants of: B2
# Details: with scm_drome Scm, Q9VHA0
row,effect of a mutation on the interaction,Variant
1,decreasing interaction,W1513A
2,decreasing interaction,G1562A
